Patent publication US20210163536A1

Tests used:
[1] = biological target: human melanocortin-1 receptor (human) (UniProt Q01726); experiment: competition with [125I]-NDP-alpha-MSH, CHO-K1 cell membranes
[2] = biological target: human melanocortin-3 receptor (human) (UniProt P41968); experiment: as above
[3] = biological target: human melanocortin-4 receptor (human) (UniProt P32245); experiment: as above
[4] = biological target: human melanocortin-5 receptor (human) (UniProt P33032); experiment: as above
Chain of human melanocortin-5 receptor (human) (P33032 whole entry): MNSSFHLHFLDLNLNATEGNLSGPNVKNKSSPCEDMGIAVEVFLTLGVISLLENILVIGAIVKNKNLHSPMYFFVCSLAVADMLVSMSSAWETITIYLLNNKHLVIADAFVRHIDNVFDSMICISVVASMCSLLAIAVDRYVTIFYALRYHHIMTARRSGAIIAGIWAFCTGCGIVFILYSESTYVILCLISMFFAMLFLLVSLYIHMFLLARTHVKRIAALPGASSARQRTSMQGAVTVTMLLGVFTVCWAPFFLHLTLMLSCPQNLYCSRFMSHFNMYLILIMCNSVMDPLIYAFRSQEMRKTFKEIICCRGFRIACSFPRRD

[5] = biological target: human melanocortin-1 receptor (human) (UniProt Q01726); experiment: cell-based or functional assay
[6] = biological target: human melanocortin-3 receptor (human) (UniProt P41968); experiment: cell-based or functional assay
[7] = biological target: human melanocortin-4 receptor (human) (UniProt P32245); experiment: cell-based or functional assay
[8] = biological target: human melanocortin-5 receptor (human) (UniProt P33032); experiment: cell-based or functional assay

Chain of human melanocortin-4 receptor (human) (P32245 whole entry): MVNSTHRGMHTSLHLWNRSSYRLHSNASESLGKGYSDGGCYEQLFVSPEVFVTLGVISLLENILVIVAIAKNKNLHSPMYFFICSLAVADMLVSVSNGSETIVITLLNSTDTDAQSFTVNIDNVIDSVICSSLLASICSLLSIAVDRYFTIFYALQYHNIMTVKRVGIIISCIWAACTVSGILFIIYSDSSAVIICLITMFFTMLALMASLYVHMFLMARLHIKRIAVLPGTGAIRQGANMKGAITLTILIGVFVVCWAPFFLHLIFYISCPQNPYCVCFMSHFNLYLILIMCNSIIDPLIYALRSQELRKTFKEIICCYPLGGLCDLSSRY
Chain of human melanocortin-1 receptor (human) (Q01726 whole entry): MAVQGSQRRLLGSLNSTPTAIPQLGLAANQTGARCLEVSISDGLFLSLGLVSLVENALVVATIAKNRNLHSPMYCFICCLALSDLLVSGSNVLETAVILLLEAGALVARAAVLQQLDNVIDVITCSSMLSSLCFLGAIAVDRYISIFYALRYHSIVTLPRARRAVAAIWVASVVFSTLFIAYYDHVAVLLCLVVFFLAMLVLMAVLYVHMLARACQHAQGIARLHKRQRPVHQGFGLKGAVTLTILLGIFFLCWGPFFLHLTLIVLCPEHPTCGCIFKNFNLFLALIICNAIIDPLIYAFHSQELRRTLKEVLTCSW
Chain of human melanocortin-3 receptor (human) (P41968 whole entry): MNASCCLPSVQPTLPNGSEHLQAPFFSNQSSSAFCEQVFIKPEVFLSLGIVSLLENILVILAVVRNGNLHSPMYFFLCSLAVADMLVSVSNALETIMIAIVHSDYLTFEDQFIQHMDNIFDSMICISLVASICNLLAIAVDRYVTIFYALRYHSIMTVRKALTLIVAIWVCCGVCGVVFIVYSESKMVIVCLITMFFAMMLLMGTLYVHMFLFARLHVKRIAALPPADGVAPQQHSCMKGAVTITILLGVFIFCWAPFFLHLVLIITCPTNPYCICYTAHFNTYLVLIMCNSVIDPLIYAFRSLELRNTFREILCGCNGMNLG

Substance | Ki [1] [nM] | Ki [2] [nM] | Ki [3] [nM] | Ki [4] [nM] | EC50, intracellular cyclic AMP (cAMP) levels [5] [nM] | EC50, intracellular cyclic AMP (cAMP) levels [6] [nM] | EC50, intracellular cyclic AMP (cAMP) levels [7] [nM] | EC50, intracellular cyclic AMP (cAMP) levels [8] [nM]
Hydantoin(C(O)-(D-Arg-Gly))-cyclo(Cys-Glu-His-D-Phe-Arg-Trp-Cys)-NH2 (peptide) | 9.49 | 124 | 2.95 | 2260 |  |  |  | 
Hydantoin(C(O)-(D-Arg-Gly))-cyclo(Cys-Glu-His-D-Phe-Arg-Trp-Cys)-NH2 (peptide; unit assumed) |  |  |  |  | 18 | 17.1 | 0.16 | 2710
Hydantoin(C(O)-(Gly-D-Arg))-cyclo(Cys-Glu-His-D-Phe-Arg-Trp-Cys)-NH2 (peptide) | 4.3 | 78 | 1.77 | 4540 |  |  |  | 
Hydantoin(C(O)-(Gly-D-Arg))-cyclo(Cys-Glu-His-D-Phe-Arg-Trp-Cys)-NH2 (peptide; unit assumed) |  |  |  |  | 12.9 | 10.3 | 0.125 | 7440
Hydantoin(C(O)-(Nle-Gly))-cyclo(Cys-D-Ala-His-D-Phe-Arg-Trp-Pen)-NH2 (peptide) | 12.9 |  | 3.53 | 27.1 |  |  |  | 
Hydantoin(C(O)-(Nle-Gly))-cyclo(Cys-D-Ala-His-D-Phe-Arg-Trp-Pen)-NH2 (peptide; unit assumed) |  |  |  |  | 17 | 21.5 | 0.584 | 352
cyclo[Hydantoin(C(O)-(Asp-A3c))-D-2-Nal-Arg-Trp-Lys]-NH2 (peptide) | 7570 | 1920 | 420 | 2880 |  |  |  | 
cyclo[Hydantoin(C(O)-(Asp-A5c))-D-2-Nal-Arg-Trp-Lys]-NH2 (peptide) | 9940 | 2390 |  |  |  |  |  | 
cyclo[Hydantoin(C(O)-(Asp-A6c))-D-2-Nal-Arg-Trp-Lys]-NH2 (peptide) | 2170 | 1480 | 16.5 | 451 |  |  |  | 
cyclo[Hydantoin(C(O)-(Asp-Aic))-D-2-Nal-Arg-Trp-Lys]-NH2 (peptide) | 9030 | 2630 | 35.8 | 1160 |  |  |  | 
cyclo[Hydantoin(C(O)-(Asp-Apc))-D-2-Nal-Arg-Trp-Lys]-NH2 (peptide) | 1280 | 2760 | 266 |  |  |  |  | 
cyclo[Hydantoin(C(O)-(Asp-D-Ala))-His-D-Phe-Arg-Trp-Dap]-NH2 (peptide) | 66.6 | 1820 | 19.9 |  |  |  |  | 
cyclo[Hydantoin(C(O)-(Asp-D-Ala))-His-D-Phe-Arg-Trp-Dap]-NH2 (peptide; unit assumed) |  |  |  |  |  | 49.3 | 2.12 | 
cyclo[Hydantoin(C(O)-(Asp-D-Ala))-His-D-Phe-Arg-Trp-Orn]-NH2 (peptide) | 37.7 | 576 | 7.81 | 6400 |  | 88.6 |  | 
cyclo[Hydantoin(C(O)-(Asp-D-Ala))-His-D-Phe-Arg-Trp-Orn]-NH2 (peptide; unit assumed) |  |  |  |  | 56.6 |  | 4.5 | 9300
cyclo[Hydantoin(C(O)-(Asp-His))-D-2-Nal-Arg-Trp-Lys]-NH2 (peptide) | 200 |  |  |  |  |  |  | 
cyclo[Hydantoin(C(O)-(Glu-D-Ala))-His-D-Phe-Arg-Trp-Dab]-NH2 (peptide) | 28 | 90.5 | 12.7 | 877 |  |  |  | 
cyclo[Hydantoin(C(O)-(Glu-D-Ala))-His-D-Phe-Arg-Trp-Dap]-NH2 (peptide) | 16.4 | 863 | 4.97 |  |  |  |  | 
cyclo[Hydantoin(C(O)-(Glu-D-Ala))-His-D-Phe-Arg-Trp-Dap]-NH2 (peptide; unit assumed) |  |  |  |  | 56.7 | 18.2 | 0.182 | > 10000
cyclo[Hydantoin(C(O)-(Glu-D-Ala))-His-D-Phe-Arg-Trp-Orn]-NH2 (peptide) | 60.4 | 2840 | 52.4 |  |  |  |  | 
cyclo[Hydantoin(C(O)-(Glu-D-Ala))-His-D-Phe-Arg-Trp-Orn]-NH2 (peptide; unit assumed) |  |  |  |  |  | 39.2 | 4.94 | 
